The source of these data is US5382658A, “Stability-enhanced variants of parathyroid hormone” (Allelix Biopharmaceuticals Inc., priority 1992, dated 1995).

The test system of data set [1] is trypsin.
Procedure: (§1) The stability of PTH and variants to degradation by trypsin was also quantified by SDS polyacrylamide gel electrophoresis (SDS-PAGE). Incubations of PTH or variant with trypsin were established. For example, a sufficient aliquot of lyophilized PTH or variant was first solubilized for 20 minutes at room temperature with 10 mM acetic acid (final concentration of 1 mg/mL) and then diluted about 20-fold with Tris buffer. About 10 μg of PTH (or variant) was removed for a preincubation, "time zero" time point, and was lyophilized. The incubations were initiated by addition of an appropriate amount of freshly prepared trypsin solution in Tris buffer for a final trypsin to PTH (or variant) ratio of 1:500 (w/w). The samples were incubated at room temperature. Aliquots of the appropriate volume corresponding to an initial amount of undigested PTH (or variant) of 10 μg were removed at specific times (2, 5, 20, 60, 240 minutes). These were quenched immediately by adding an equal weight of SBTI to trypsin (either 2 μL of SBTI in Tris at a concentration of 10 μg/mL or 0.02 μg SBTI was added to the time point containing 0.02 μg trypsin and 10 μg initial equivalent amount of PTH or variant in Tris buffer). Samples quenched at the various time points were then lyophilized.
(§2) Lyophilized samples containing 10 μg of intact and/or fragmented PTH or variant were solubilized in gel sample buffer and subjected to electrophoresis using suitable conditions to separate intact PTH from the smaller fragments (16.5% acrylamide gel, BioRad Mini-Protean II apparatus, 90 minutes, 100 mV). The gels were fixed and stained for protein with Coomassie Blue. The amount of intact, full length PTH present in each of the various samples (preincubation sample and time point samples) was quantified using a gel scanning method, which measures the quantity of stain and therefore the amount of protein scanned in each band. Initially, a standard curve was constructed by loading various amounts of PTH in each lane (2,2, 4, 6, 8, 10 μg per lane), scanning each lane, and then constructing a standard curve of the quantity of stain at the mobility of PTH as a function of the amount of PTH loaded per lane. With the gel scanning system, the quantity of stain was proportional to the amount of PTH loaded in the range of 1 to 10 μg per lane. Using this standard curve, the amount of intact PTH present in each sample was calculated from the quantity of stain at the mobility of intact PTH.
(§3) The amount of PTH (or variant) in the preincubation sample was termed Po (scanned amount corresponding to approximately 10 μg intact PTH or variant) and the amount at a given time, t, was defined as Pt.
Data set [2] deals with adenylate cyclase activity in UMR-106 rat osteosarcoma cells. In words: UMR-106 based adenylate cyclase assay (cAMP formation). Particulars: for EC50: UMR-106 cells, untreated samples, read-out: EC50, concentration effective for half-maximal stimulation of adenylate cyclase activity; for potency relative to hPTH (in words): UMR-106 adenylate cyclase assay. The class given is cell-based. From the text: In the present specification, PTH activity is defined in the context of the osteosarcoma-based adenylate cyclase assay employed conventionally in the art. Briefly, this assay provides an in vitro determination of the extent to which PTH stimulates adenylate cyclase activity in rat osteosarcoma cells of the `UMR` lineage, and thus provides an indication of PTH effects on bone tissue in vivo. Protocols for conducting the assay have been described by Rodan et al, 1983, J. Clin. Invest., 72:1511 (in which the osteosaracoma cells of the ROS lineage are employed) and by Rabbani et al, 1988, Endocrinol., 123:2709 (which employs the line UMR-106). […] The term EC50 refers to the concentration of PTH or variant effective for half-maximal stimulation of adenylate cyclase activity.
Thawed or fresh samples of human PTH(1-84) and of PTH variants obtained as described above were then evaluated for biological activity using a UMR-106 based adenylate cyclase assay and the protocol as described by Rabbini et al, 1988, Endocrinology, 123:2709, which is incorporated herein by reference. As noted, rat osteosarcoma cells of the UMR line are stimulated by PTH to produce adenylate cyclase, an enzyme which catalyzes intracellular conversion of ATP to its cylic monophosphate analogue, cAMP. In this assay therefore, PTH activity is determined by assaying radiometrically the formation of cAMP in PTH-stimulated UMR cells. The results of the assays, expressed in terms of EC50 (concentration of PTH or variant effective for half-maximal stimulation of adenylate cyclase activity), are presented in the table below: […]
On the technique in general: cAMP levels reflect the balance of adenylyl cyclase and phosphodiesterase activity.

Data set [3] in a line: Trypsin sensitivity: trypsin or mock incubation followed by UMR-106 adenylate cyclase assay. Particulars: UMR-based adenylate cyclase assay after trypsin incubation under the exemplified conditions; read-out: EC50 following trypsin incubation. The protocol:
PTH variants having an "improved stability in the presence of trypsin" are degraded by trypsin at a rate that is slower than a similarly treated native PTH control. An assay suitable for identifying a reduced tryptic digestion rate entails a two step procedure, in which a PTH variant and a native PTH control are separately incubated with trypsin for a defined period, and are then assayed for activity in the osteosarcoma-based assay just described. Protocols suitable for assaying trypsin sensitivity are described in the literature and are outlined in the examples herein.
To measure the sensitivity of a compound (native PTH or variants) to digestion with trypsin, duplicate incubations were established for each compound in either the presence of trypsin ("Trypsin Incubation") or the absence of trypsin ("Mock Incubation"). For example, a lyophilized aliquot of PTH (or variant) was solubilized for 20 minutes at room temperature in 10 mM acetic acid at a final concentration of 1 mg/mL (50 μg PTH or variant plus 50 μL 10 mM acetic acid). […] The appearance of the cleavage product was monitored as a function of time at 253 nm. […]
Parallel trypsin and mock incubations were established as follows. […] Dose-response curves were generated and the relevant EC50 values were calculated. […]

The subject of the next data set is ovariectomized rat. In words: Ovariectomized rat model of osteoporosis, total skeletal calcium scan. As to conditions: subcutaneous, once daily for 28 days, human PTH 150 μg/kg, variant dosed at 25 and 150 μg/kg, dose of the reported result not stated. The class given is in vivo. The protocol:
The P2 variant was also evaluated in vivo for its effect on skeletal tissue, in an ovariectomized rat model of osteoporosis. Formulations of the P2 variants were first prepared by reconstituting the P2 variant from lyophilized powder in 0.1M acetic acid, then diluting to 10 mM acetic acid by addition of normal saline vehicle and 2% (v/v) heat-inactivated rat serum, to generate a stock solution containing the variant at a concentration of about 150 μg/ml. The P2 formulation was then injected subcutaneously at the neck region, in selected volumes representing dosage sizes of 25 μg/kg and 150 μg/kg (8 rats/each dose). A third group of rats received human PTH at a dose of 150 μg/kg and a fourth group received vehicle alone. Treatment regimen consisted of single dose administration once daily for 28 days.
After treatment, the rats were sacrificed and evaluated by total skeletal calcium scan. Relative to rats receiving vehicle alone, the whole body calcium scanning results indicated an improvement in rats receiving human PTH (5.8% increase), and a still further improvement (9.6% increase) in rats receiving the [His^25 His^26 Leu^27 ] variant. It is believed that enhanced effects of this variant result from its greater half-life in vivo i.e. its resistant to serum-borne trypsin and/or other enzymes which otherwise degrade and/or inactivate the native hormone.

Data set [4] has as its system trypsin. The experiment in a line: Trypsin degradation time course quantified by SDS-PAGE gel scanning.
Procedure: as §1, §2, §3

Like-named read-outs stand apart in the source and are kept apart here.

For “human PTH(1-84) [hPTH, reference compound]”, the “Half-Life (from SDS-PAGE analysis)” value in the data set on trypsin [1] stood at 25 ± 5 min. The values for the EC50 in data set [2] and in data set [3] were 1 nM and about 12 nM, respectively. Besides, in the data set on ovariectomized rat, the “increase in whole body calcium relative to rats receiving vehicle alone” value worked out at 5.8%.

B1: [His^25 ]hPTH (protein, UniProt P01270 32-115, looked up, variant R25H)
Parathyroid hormone: SVSEIQLMHNLGKHLNSMERVEWLHKKLQDVHNFVALGAPLAPRDAGSQRPRKKEDNVLVESHEKSLGEADKADVNVLTKAKSQ
Take B1: in the data set with trypsin [1], the “Half-Life (from SDS-PAGE analysis)” value was determined as 27 ± 7 min. For the same molecule, in data set [2], the “potency relative to hPTH (in words)” value was “substantially equipotent” and the EC50 was found to be 2 nM.

B2: [His^25 His^26 Leu^27 ]hPTH (protein, UniProt P01270 32-115, looked up, variant R25H K26H K27L)
Parathyroid hormone: SVSEIQLMHNLGKHLNSMERVEWLHHLLQDVHNFVALGAPLAPRDAGSQRPRKKEDNVLVESHEKSLGEADKADVNVLTKAKSQ
For the molecule B2, in data set [2], the “potency relative to hPTH (in words)” value was “substantially equipotent” and the EC50 turned out to be 1.7 nM. Also, in the data set on trypsin [4] (Trypsin:PTH = 1:500 (w/w), room temperature, time when Pt/Po = 0.5), the “Half-Life (from SDS-PAGE analysis)” value is over 240 min. For the same molecule, the “initial material remaining (intact)” value in the data set on trypsin [4] (after 240 minutes, trypsin:PTH 1:500 (w/w)) is “more than 60%”. For the same molecule, the “resistance to proteolysis by trypsin (in words)” value in the data set with trypsin [4] (trypsin to PTH ratio of 1:500 (w/w)) is “almost completely resistant to proteolysis”. In the data set with ovariectomized rat, the “increase in whole body calcium relative to rats receiving vehicle alone” value is recorded as 9.6%.
